Laboratory results: article PMC8682759

B1: AcP-TRap4 (structured_RNA)
RNA: GGAUCCAAGCUUGUUUGGCCCAAUUCCUCGUCUUCAGACUGGCCUAGAUAAAUUCGGAGCUUGUUCACAACCUCUACUUCCUGCUUUCGACGGAGAAUUC
B2: AcP-TRap1 (structured_RNA)
RNA: GGAUCCAAGCUUGUUUGGCUCCAACCGUCCCCGCGUAUAUGGCCUAGAUAAAUUCGGAGCUUUUUGCCCAUCCUCAUAUAUUGCUUUCGACGGAGAAUUC
B3: AcP-TRap2 (structured_RNA)
RNA: GGAUCCAAGCUUGUUUGGCAUUCCACGUCGAUAAAAGAUUGGCCUAGAUAAAUUCGGAGCUUAAAAUUCCCUCCUAUCUUUUGCUUUCGACGGAGAAUUC
B4: AcP-TRap3 (structured_RNA)
RNA: GGAUCCAAGCUUGUUUGGCCCAAUAACGUCGAUUGAUUGUGGCCUAGAUAAAUUCGGAGCUUUCAAUGAAUUACACAACAAUGCUUUCGACGGAGAAUUC

Biological target: beta-actin (monomeric, G-actin) (human, UniProt P60709 2-375)
Assay: fluorescence turn-on of BHQ1 probe; apparent; 10 mM Mg2+, BHQ1 probe; 10 mM Tris-HCl pH 7.6, 100 mM KCl, 10 mM MgCl2 (Kd assays), room temperature; RNA 3 uM with actin 3 uM preincubated 30 min at 25 C, then probe 1 uM (final) in 2

Row | Binder | Kd [nM]
1 | B1 | 200
2 | B2 | 1500
3 | B3 | 600
4 | B4 | 1000
